± gives the standard deviation of the averaged measurements.
How the values were obtained:
hTERT-HMEC = assay: percentage of EdU-negative (G0-arrested) nuclei per well, 72 h; higher = more G0 arrest; settings: reference: sequence is the full UniProt precursor, the tested protein was the secreted form or ectodomain
MCF7 = assay: as above; settings: reference: sequence is the full UniProt precursor, the tested protein was the secreted form or ectodomain
[1] = protein concentration 0.0225 µM
[2] = protein concentration 0.0257143 µM
[3] = protein concentration 0.257143 µM
[4] = protein concentration 0.00825 µM
[5] = protein concentration 0.0825 µM
[6] = protein concentration 0.012845 µM
[7] = protein concentration 0.12845 µM
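Further: secreted proteins added to cultured cells, EdU pulse at the end, nuclei found by Hoechst imaging, EdU status from nuclear versus surrounding ring intensity ratio, PBS as neutral control.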

MKPVLPLQFLVVFCLALQLVPGSPKQRVLKYILEPPPCISAPENCTHLCTMQEDCEKGFQCCSSFCGIVCSSETFQKRNRIKHKGSEVIMPAN [Q8IUB5]
percentage of EdU-negative (hTERT-HMEC; [1]): 4.99 ± 0.22% | percentage of EdU-negative (hTERT-HMEC; protein concentration 0.225 µM): 5.21 ± 0.23% | percentage of EdU-negative (MCF7; [1]): 25.88 ± 0.11% | percentage of EdU-negative (MCF7; protein concentration 0.225 µM): 23.6 ± 1%

MKPWILLLVMFISGVVMLLPVLGSFWNKDPFLDMIRETEQCWVQPPYKYCEKRCTKIMTCVRPNHTCCWTYCGNICLDNEEPLKSMLNP [Q8NEX5]
percentage of EdU-negative (hTERT-HMEC; [2]): 5.54 ± 0.81% | percentage of EdU-negative (hTERT-HMEC; [3]): 5.1 ± 0.81% | percentage of EdU-negative (MCF7; [2]): 26 ± 0.26% | percentage of EdU-negative (MCF7; [3]): 26.31 ± 0.064%

MKQKMMARLLRTSFALLFLGLFGVLGAATISCRNEEGKAVDWFTFYKLPKRQNKESGETGLEYLYLDSTTRSWRKSEQLMNDTKSVLGRTLQQLYEAYASKSNNTAYLIYNDGVPKPVNYSRKYGHTKGLLLWNRVQGFWLIHSIPQFPPIPEEGYDYPPTGRRNGQSGICITFKYNQYEAIDSQLLVCNPNVYSCSIPATFHQELIHMPQLCTRASSSEIPGRLLTTLQSAQGQKFLHFAKSDSFLDDIFAAWMAQRLKTHLLTETWQRKRQELPSNCSLPYHVYNIKAIKLSRHSYFSSYQDHAKWCISQKGTKNRWTCIGDLNRSPHQAFRSGGFICTQNWQIYQAFQGLVLYYESCK [Q8WZ79]
percentage of EdU-negative (hTERT-HMEC; [4]): 5.48 ± 0.48% | percentage of EdU-negative (hTERT-HMEC; [5]): 15.5 ± 1.6% | percentage of EdU-negative (MCF7; [4]): 28.9 ± 1.8% | percentage of EdU-negative (MCF7; [5]): 32.3 ± 0.53%

MKRLVCVLLVCSSAVAQLHKDPTLDHHWHLWKKTYGKQYKEKNEEAVRRLIWEKNLKFVMLHNLEHSMGMHSYDLGMNHLGDMTSEEVMSLMSSLRVPSQWQRNITYKSNPNRILPDSVDWREKGCVTEVKYQGSCGACWAFSAVGALEAQLKLKTGKLVSLSAQNLVDCSTEKYGNKGCNGGFMTTAFQYIIDNKGIDSDASYPYKAMDQKCQYDSKYRAATCSKYTELPYGREDVLKEAVANKGPVSVGVDARHPSFFLYRSGVYYEPSCTQNVNHGVLVVGYGDLNGKEYWLVKNSWGHNFGEEGYIRMARNKGNHCGIASFPSYPEI
percentage of EdU-negative (hTERT-HMEC; [1]): 4.72 ± 0.47% | percentage of EdU-negative (hTERT-HMEC; protein concentration 0.225 µM): 9.97 ± 2.1% | percentage of EdU-negative (MCF7; [1]): 25.8 ± 0.69% | percentage of EdU-negative (MCF7; protein concentration 0.225 µM): 28.92 ± 0.25%

MKRSVAVWLLVGLSLGVPQFGKGDICDPNPCENGGICLPGLADGSFSCECPDGFTDPNCSSVVEVASDEEEPTSAGPCTPNPCHNGGTCEISEAYRGDTFIGYVCKCPRGFNGIHCQHNINECEVEPCKNGGICTDLVANYSCECPGEFMGRNCQYKCSGPLGIEGGIISNQQITASSTHRALFGLQKWYPYYARLNKKGLINAWTAAENDRWPWIQINLQRKMRVTGVITQGAKRIGSPEYIKSYKIAYSNDGKTWAMYKVKGTNEDMVFRGNIDNNTPYANSFTPPIKAQYVRLYPQVCRRHCTLRMELLGCELSGCSEPLGMKSGHIQDYQITASSIFRTLNMDMFTWEPRKARLDKQGKVNAWTSGHNDQSQWLQVDLLVPTKVTGIITQGAKDFGHVQFVGSYKLAYSNDGEHWTVYQDEKQRKDKVFQGNFDNDTHRKNVIDPPIYARHIRILPWSWYGRITLRSELLGCTEEE
percentage of EdU-negative (hTERT-HMEC; [6]): 4.79 ± 0.32% | percentage of EdU-negative (hTERT-HMEC; [7]): 47.8 ± 1.9% | percentage of EdU-negative (MCF7; [6]): 25.7 ± 1.6% | percentage of EdU-negative (MCF7; [7]): 30.6 ± 1.9%

Reference: the supplement of paper PMC11316812
